7 molecules from patent publication US20090176711A1, “INHIBITORS OF AMYLOID PRECURSOR PROTEIN PROCESSING” (priority 2008, published 2009) can be followed below.

The subject of test [1] is cleavage of F-Substrate M (f-Sub M) by rhBACE1. Nature of the test: Fluorometric (FRET) assay for cleavage of F-Substrate M by rhBACE. Type of test: biochemical, human. Particulars: cleavage of f-Sub M by rhBACE1 (FIG. 29A). From the text: This assay system utilizes fluorescence resonance energy transfer (FRET) technology. Substrate M was synthesized with two fluorophores, a fluorescent donor and a proprietary quenching acceptor (purchased from a commercial source, R&D Systems). […] Upon cleavage of substrate by β-secretase, the fluorophore is separated from the quenching group, restoring the full fluorescence yield of donor.
Substrate labeled with fluorophores will be called F-Substrate M (R&D Systems). Recombinant human β-secretase will be called rhBACE (recombinant human β-site APP cleavage enzyme) (purchased from R&D systems).
F-Substrate M (20 μM) was preincubated with varying concentrations of complementary peptides in assay buffer (0.1 M NaOAc, pH 4.0) for 1 hr at RT. rhBACE (70 nM) in assay buffer was added. Cleavage by rhBACE was detected by reading emitted fluorescence level.
In this assay system, fluorescence resonance energy transfer (FRET) technology was utilized. Swedish mutant APP substrate (f-Sub M) with a fluorescent donor and a proprietary quenching acceptor (7-methoxycoumarin-4-acetyl-SEVNLDAEFRK(Dnp)-RR-NH2) was purchased from R&D systems, Inc (MN, USA). […] Upon cleavage of substrate by rhBACE1 (R&D Systems, Inc., MN, USA), the fluorescence donor is separated from the quenching group, restoring the full fluorescence yield of the donor. f-Sub M (10 μM) was pre-incubated with HC peptide in assay buffer (0.1 M NaOAc, pH 4.0) for 2 h at RT. After pre-incubation, substrate and HC peptide mixture in assay buffer was transferred to FluoroNunc™ 96 well white plate (Nunc, Roskilde, Denmark), and rhBACE1 (70 nM) was added. Time-dependent emission of fluorescence (excitation at 320 nm, emission at 405 nm) was monitored in a Molecular Devices SpectraMax Gemini EM fluorescence reader (CA, USA) for 1 h at 37° C. All assays were carried out in duplicate.

In test [2] the test system is production of Aβ in HEK 293-APP cells. Nature of the test: Measurement of Aβ level in culture media of HEK293-APP cells (Aβ1-40 immunoassay). Type of test: cell-based, human. The procedure:
Human embryonic kidney (HEK) 293 cells stably transformed with the gene for APP695 (HEK 293-APP) were used for studies on the inhibitory activity of HC peptides. HEK 293-APP cells were generously supplied by Dr. T W Kim (Columbia University, NY, USA). HEK 293-APP cells were cultured in Dulbecco's Modified Eagle's Medium (DMEM) (Invitrogen, CA, USA) with 10% fetal bovine serum (HyClone, UT, USA) and 300 μg/ml of geneticin (Invitrogen, CA, USA) in a humidified atmosphere of 5% CO2, 95% air at 37° C. Cells were subcultured after trypsinization, and the medium was changed every 2-3 days.
Most of the APP processing including the cleavage by BACE1 occurs in endoplasmic reticulum (ER)/Golgi complex and endosome. It was investigated if c-Sub M and the deletion series would inhibit processing of APP in the cells. For this examination, HEK293 cells transformed with wild type human APP genes for our investigation was chosen.
The culture media from the peptide-treated cells (see above) was harvested and centrifuged at 3500×g for 10 min. Amount of Aβ in the supernatant was determined with human Aβ1-40 immunoassay kits (Signal Select™, BioSource, CA, USA) according to the instruction provided by the company.

Test [3] concerns CTFβ accumulation (cleavage of APP by BACE1) in HEK 293-APP cells. Nature of the test: Level of CTFβ in HEK 293-APP cells (immunoblot, 6E10). Type of test: cell-based, human. Particulars: HEK293-APP cells, 9 h. The procedure:
When the confluency of the cells reached 90%, the cells were washed with PBS once, and HC peptide in serum free DMEM was added to the cells. […] The lysed cells were centrifuged at 12000×g for 10 min at 4° C. The protein in the supernatant was determined by bicinchoninic acid assay (Pierce, IL, USA) [Smith, P. K., Krohn, R. I., Hermanson, G. T., Mallia, A. K., Gartner, F. H., Provenzano, M. D., Fujimoto, E. K., Goeke, N. M., Olson, B. J., and Klenk, D. C. […] After electrophoresis, the proteins in the gel were electrophoretically transferred onto a polyvinylidene difluoride (PVDF) membrane at 100 mA for 80 min. The blotted membrane was fixed with 0.2% glutaraldehyde in PBS for 45 min at RT and treated for 5 min in boiling PBS. CTFβ (the C-terminal fragment of APP generated by BACE1) was detected by treatment of the membrane with 0.5 μg/ml of anti-Aβ Nterminal 6E10 antibody (Signetlabs, Inc., MA, USA) followed by incubation with 0.2 μg/ml of anti-mouse antibody coupled with HRP (Amersham Biosciences Ltd. Uppsala, Sweden). The developed film was scanned and the density of CTFβ band was determined by Scion Image Program (Scion Corporation, MD, USA).
For orientation: In western blotting, separated proteins are transferred to a membrane and probed.

For test [4], the system named is Substrate M (Sub M, SEVNLDAEFR; β-secretase cleavage site of APPsw). Nature of the test: Binding of biotin-labeled Substrate M to immobilized complementary (HC) peptides. The following applies: substrate not specified. How it is done:
(§1) Complementary peptides (0.2, 2, 20, and 200 μM) were dissolved in phosphate buffered saline (PBS) (pH 7.4) and fixed to microtiter wells for 5 hr at 37° C. The wells were blocked with blocking buffer (3% BSA/PBS) for 1 hr at 37° C. Either N-terminally biotinylated Substrate W or M (20 μM) in blocking buffer was added and incubated for overnight at 4° C. Streptavidin-horseradish peroxidase in blocking buffer was added to detect resulting bound substrates. The plate was incubated for 2 hr at room temperature (RT), followed by addition of 3,3′,5,5′-tetramethyl-benzidine (TMB) as substrate for horseradish peroxidase for color reaction.
(§2) Reacti-Bind™ maleic anhydride-activated polystyrene plate (Pierce, IL, USA) was coated with 50 μl of HC peptide (200 μM in distilled water) by chemical coupling for 3 h at room temperature (RT) and washed three times with phosphate buffered saline (PBS) containing 0.05% tween 20 (PBST). The plate was blocked with blocking buffer (0.5% gelatin in PBS) for 1 h at RT. After discarding blocking buffer, biotinylated BACE1 substrates (200 μM) in blocking buffer was applied on the plate and incubated for 2.5 h at RT. Each well was washed three times with PBST. The bound biotinylated BACE1 substrates were detected by incubation with streptavidin-horseradish peroxidase (Str-HRP, 125 mU/ml in blocking buffer) for 2 h at RT. Color reaction was carried out with 50 μl of 3,3′,5,5′-Tetramethylbenzidine Liquid Substrate (Sigma-Aldrich, MO, USA). After stopping the reaction by addition of an equal volume of 1 N HCl, absorbance at 450 nm was read in an automated ELISA reader (EL 312e, Bio-Tek Instruments, VT, USA). All assays were carried out in duplicate.

For test [5], the system named is APP processing in HEK293-APP cells. The test is described as follows: APP inhibitor activity on HEK293-APP cells (βCTF Western blot). Type of test: cell-based, human. The following applies: γ-secretase inhibitor and cholesterol added. How it is done:
In the neuronal cells of the brain, APP is processed by α-secretase or β-secretase. To investigate the effects of the inhibitors on the cell, a cell based assay system was developed as described in FIG. 10. C-terminal fragment of APP remaining on the cell membrane was detected by Western blot. The resulting C-terminal fragments, αCTF or βCTF are further processed by γ-secretase. However, if the cells are treated with the γ-secretase inhibitor, this processing is blocked. As a result, αCTF or βCTF accumulate in the cell. If β-secretase inhibitor or APP inhibitor is added, this processing is blocked and βCTF disappears.
In addition, γ-secretase inhibitor and cholesterol were added to the cells to increase βCTF level. Commercially available peptide-based β-secretase inhibitor was included as control (Lane 6, FIG. 11). To detect the N-terminal fragment of β-amyloid which is a product of APP processing, 6E10 antibody was employed. […] Recently, it has been reported that the commercially available peptide-based inhibitor had to be linked to an oligoarginine transporter peptide to have inhibitory activity against cells. Therefore, mimetic approach is adopted to produce cell permeable analogs. (Chang et al. J. Neurochemistry 2004; 89:1409-1416).
After confirming the ability of the oligo-arginine coupled APP inhibitors to enter the cells, the inhibitors were applied to HEK293-APP cells overexpressing APP to test their inhibitory activities on APP processing. […] This inhibitor started to show significant inhibitory activity beginning from 0.1 μM (lower panel).

Test [6] deals with T1, N-terminally biotinylated Substrate W.
T1 construct: also called bio-Sub W; Sub W
T1 peptide: Biotin-SEVKMDAEFR
Nature of the test: plate assay: complementary peptide on wells, biotinylated substrate, streptavidin-HRP. The procedure:
as §1

In test [7] the target is T2, N-terminally biotinylated Substrate M.
T2 construct: also called bio-Sub M; Sub M
T2 peptide: Biotin-SEVNLDAEFR
The test is described as follows: plate assay: HC peptide chemically coupled to wells, bio-Sub M, streptavidin-HRP (Table 1). How it is done: as §2
The HC peptides were chemically coupled to the surface of a microtiter plate to minimize the different coating efficiency of peptides, and the Sub M labeled with biotin (bio-Sub M) was applied. bio-Sub M bound to c-Sub but not to Sub M-c (FIG. 25A). To test inhibitory activity of HC peptide, FRET assay system was used as described above. […]

Test [8] deals with T3, f-Sub M (7-methoxycoumarin-4-acetyl-SEVNLDAEFRK(Dnp)-RR-NH2).
T3 peptide: Mca-SEVNLDAEFRK(Dnp)RR-NH2
The test is described as follows: cell-based or functional assay.

Test [9] deals with T4, recombinant human β-secretase (rhBACE1) (human, UniProt P56817 22-457, limits assumed).
T4 construct: Bought reagent; also called recombinant human β-site APP cleavage enzyme
The test is described as follows: ELISA, c-Sub M immobilized.

Test [10] concerns the target T2, N-terminally biotinylated Substrate M. The test is described as follows: plate assay: complementary peptide on wells, biotinylated substrate, streptavidin-HRP. How it is done: as §1
In test [11] the target is T1, N-terminally biotinylated Substrate W. Nature of the test: plate assay: HC peptide chemically coupled to wells, bio-Sub W, streptavidin-HRP (FIG. 27). How it is done: as §2
Thereafter, it was investigated if the c-Sub M and the deletions series bind to wild type Sub W. The results will give us important information on possibility of inhibition of wild type of APP cleavage in cells by the HC peptides derived from Sub M in view of the poor cleavage of Sub W by rhBACE1 in vitro. […] Thus, there is possibility that the HC peptides for Sub M (c-Sub M series) or its peptidomimetics will inhibit the cleavage of wild type APP by BACE1 in cells.

Test [12] deals with T2, N-terminally biotinylated Substrate M. Nature of the test: plate assay: HC peptide chemically coupled to wells, bio-Sub M, streptavidin-HRP (Table 2). The procedure: as §2
The binding and inhibitory activities of these peptides were determined as described in Experimental Procedures. The concentration of HC peptides and f-Sub M was 0.5 mM and 10 μM, respectively. All the experimental data for the binding activity as well as for the inhibitory activity were within 5% error range.

Non-standard residues stand in square brackets, D forms with d. No end group written: not given here. *: point of attachment. Biotin = O=C1N[C@H]2[C@H](CS[C@H]2CCCCC(=O)*)N1; Dnp = O=[N+]([O-])c1ccc(*)c([N+](=O)[O-])c1; Mca = COc1ccc2c(CC(=O)*)cc(=O)oc2c1; Ahx = NCCCCCC(=O)O

T4 sequence (P56817 22-457 limits assumed): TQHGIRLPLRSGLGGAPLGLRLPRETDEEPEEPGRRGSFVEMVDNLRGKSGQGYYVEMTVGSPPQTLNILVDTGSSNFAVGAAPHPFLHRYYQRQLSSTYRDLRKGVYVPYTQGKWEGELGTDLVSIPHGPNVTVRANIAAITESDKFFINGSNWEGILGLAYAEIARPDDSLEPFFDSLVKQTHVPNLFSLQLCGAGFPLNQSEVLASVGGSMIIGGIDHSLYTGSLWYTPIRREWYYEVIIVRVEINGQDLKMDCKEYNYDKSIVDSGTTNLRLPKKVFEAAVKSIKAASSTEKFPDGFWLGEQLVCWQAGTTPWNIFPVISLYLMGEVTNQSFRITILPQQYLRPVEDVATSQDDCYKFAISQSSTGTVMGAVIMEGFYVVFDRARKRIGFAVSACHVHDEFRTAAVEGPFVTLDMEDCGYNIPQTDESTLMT

Regarding “NH2-(CH2)5-CO-Cys-Ile-Gln-Ile-His-Phe-NH2 ([Ahx]CIQIHF-NH2; N-terminus assumed; SMILES CC[C@H](C)[C@H](NC(=O)[C@H](CCC(N)=O)NC(=O)[C@@H](NC(=O)[C@H](CS)NC(=O)CCCCCN)[C@@H](C)CC)C(=O)N[C@@H](Cc1c[nH]cn1)C(=O)N[C@@H](Cc1ccccc1)C(N)=O) [AHX-c-Sub M ΔN3C1]”, the “in vitro inhibitory activity relative to non-modified c-Sub M ΔN3C1” value in [1] is “by half”. In addition, the “reduction of amount of Aβ released” value in test [2] (6.25 μM, 9 h) was “about 70%”. Besides, the “amount of Aβ released into the culture medium” value in [2] (increasing concentrations) is on record as “reduced in a concentration dependent manner”. Also, in test [3], the “accumulation of the cleavage product CTFβ” value is listed as “inhibited the accumulation of both forms of CTFβs”.

“SEFC (also: cyclic, mode of cyclisation not given here) [c-Sub MΔC6]”: the “absorbance in binding test” value in test [4] is recorded as “high absorbance”. The “inhibitory activity on APP processing (βCTF)” value in [5] is on record as “none of the inhibitors tested showed inhibitory activity”.

Take “β-secretase inhibitor IV [reference compound]”: the “inhibition of production of Aβ” value in test [2] (2 μM) is listed as “about 90%”. Moreover, in test [3], the “accumulation of the cleavage product CTFβ” value is recorded as “inhibited accumulation of only the nonphosphorylated form of CTFβ”.

B1: c-Sub W (peptide)
peptide: SEFCIHLHFR-NH2
notes: Hydropathic complementary decapeptide to Sub W, read 5'-3'
As to B1, the binding result in [6] and in test [7] was “binds” in each case.

B2: c-Sub M (peptide)
peptide: SEFCIQIHFR-NH2
notes: Hydropathic complementary decapeptide to Sub M, read 5'-3'
Take B2: in test [8], the “inhibition of cleavage of f-Sub M by rhBACE1 (FRET), HC peptide 100 fold over substrate” value is ~50%. For the same molecule, in [8], the “inhibitory activity for the cleavage of f-Sub M by rhBACE1 (FRET; HC peptide 1 mM, f-Sub M 10 µM)” value was determined as 45%. Further, the results for the binding result in test [9] and in test [10] were “no binding” and “binds”, respectively. In addition, the “fold binding to Sub W relative to c-Sub W” value in test [11] was 4 fold.

B3: Sub W-c (peptide)
peptide: RLHFYLRLKA-NH2
notes: Hydropathic complementary decapeptide to Sub W, read 3'-5'
In the case of B3, the binding result in test [7] is listed as “binds”.

SEFCIQIHF-NH2 [c-Sub M ΔC1]: the “inhibitory activity for the cleavage of f-Sub M by rhBACE1 (FRET; HC peptide 1 mM, f-Sub M 10 µM)” value in test [8] worked out at 90%. In addition, the binding result in [12] is reported as “binds”.
